This data set concerns the molecule itself. Description: cryo-EM structure; hAE2 in GDN, about 10 mg/mL; samples in KNO3 pH 7.25 to 6.55, Tris-HCl pH 8.32, NaCl, 50 mM NaHCO3, or DIDS with NaHCO3; C2 symmetry (one class C1).

B1: human anion exchanger 2 (AE2), residues 177-1241 (natural protein, UniProt P04920 177-1241, looked up)
chain: LPHQEATPRASKGAQAGTQVEEAEAEAVAVASGTAGGDDGGASGRPLPKAQPGHRSYNLQERRRIGSMTGAEQALLPRVPTDEIEAQTLATADLDLMKSHRFEDVPGVRRHLVRKNAKGSTQSGREGREPGPTPRARPRAPHKPHEVFVELNELLLDKNQEPQWRETARWIKFEEDVEEETERWGKPHVASLSFRSLLELRRTLAHGAVLLDLDQQTLPGVAHQVVEQMVISDQIKAEDRANVLRALLLKHSHPSDEKDFSFPRNISAGSLGSLLGHHHGQGAESDPHVTEPLMGGVPETRLEVERERELPPPAPPAGITRSKSKHELKLLEKIPENAEATVVLVGCVEFLSRPTMAFVRLREAVELDAVLEVPVPVRFLFLLLGPSSANMDYHEIGRSISTLMSDKQFHEAAYLADEREDLLTAINAFLDCSVVLPPSEVQGEELLRSVAHFQRQMLKKREEQGRLLPTGAGLEPKSAQDKALLQMVEAAGAAEDDPLRRTGRPFGGLIRDVRRRYPHYLSDFRDALDPQCLAAVIFIYFAALSPAITFGGLLGEKTQDLIGVSELIMSTALQGVVFCLLGAQPLLVIGFSGPLLVFEEAFFSFCSSNHLEYLVGRVWIGFWLVFLALLMVALEGSFLVRFVSRFTQEIFAFLISLIFIYETFYKLVKIFQEHPLHGCSASNSSEVDGGENMTWAGARPTLGPGNRSLAGQSGQGKPRGQPNTALLSLVLMAGTFFIAFFLRKFKNSRFFPGRIRRVIGDFGVPIAILIMVLVDYSIEDTYTQKLSVPSGFSVTAPEKRGWVINPLGEKSPFPVWMMVASLLPAILVFILIFMETQITTLIISKKERMLQKGSGFHLDLLLIVAMGGICALFGLPWLAAATVRSVTHANALTVMSKAVAPGDKPKIQEVKEQRVTGLLVALLVGLSIVIGDLLRQIPLAVLFGIFLYMGVTSLNGIQFYERLHLLLMPPKHHPDVTYVKKVRTLRMHLFTALQLLCLALLWAVMSTAASLAFPFILILTVPLRMVVLTRIFTDREMKCLDANEAEPVFDEREGVDEYNEMPMPV
notes: Anion exchanger 2 (AE2, SLC4A2), human; A TEV protease site lies between the N-terminal Flag-8xHis tags and AE2; Solubilised in LMNG/CHS/GDN and kept in GDN; Residues 1-319, 433-498, 643-672 and 856-893 are not modelled in the structures; also called hAE2; AE2^177-1241; source: Expi293 cells, transiently transfected, purified (anti-Flag beads, SEC in GDN)
As a reminder, the stoichiometry N is a count of units in the complex or per binding partner. Take B1: the “stoichiometry N” value came to 2.

The record behind these values is publication PMC10066210, “The structural basis of the pH-homeostasis mediated by the Cl^−/HCO3^− exchanger, AE2” (Nature Communications, 2023).
